Series [1] addresses T1, CcdA2 (antitoxin dimer);CcdB2 (toxin dimer) (Escherichia coli (F …, UniProt P62552;P62554 1-72;1-101, |)). The series can be described thus: ITC.
For series [2], the target named is T1, CcdA2 (antitoxin dimer);CcdB2 (toxin …). The series can be described thus: EMSA.
For series [3], the target named is T2, toxin CcdB2 (F plasmid CcdB dimer) (E. coli F plasmid, UniProt P62554 1-101). The series can be described thus: ITC.
In series [4] the target is T2, toxin CcdB2 (F plasmid CcdB dimer). The experiment in a line: ITC. The source holds these as a separate data set.
Series [5] addresses T1, CcdA2 (antitoxin dimer);CcdB2 (toxin …). The series can be described thus: EMSA. The source holds these as a separate data set.

The text below walks through data of PMC5389731 (Nucleic Acids Research, 2017).

B1: CcdITC (3 binding sites) (dsDNA)
DNA 1: GCGGTATAAGAATATATACTGATATGTATACCC
DNA 2: GGGTATACATATCAGTATATATTCTTATACCGC
As to B1, the binding result in series [1] is reported as “binds”.

B2: Ccd3 (3 binding sites) (dsDNA)
DNA 1: ACGTGCGGTATAAGAATATATACTGATATGTATACCCGAATA
DNA 2: TATTCGGGTATACATATCAGTATATATTCTTATACCGCACGT
For the molecule B2, in series [2], the binding result was “binds”.

B3: antitoxin CcdA2 (F plasmid CcdA dimer, full length) (natural protein, E. coli F plasmid, UniProt P62552 1-72, looked up)
chain: MKQRITVTVDSDSYQLLKAYDVNISGLVSTTMQNEARRLRAERWKAENQEGMAEVARFIEMNGSFADENRDW
B3: the “difference between the high and low affinity binding constants” value in series [3] was around 1e+06 fold.

B4: CcdAC, truncated CcdA comprising the entire C-terminal domain (CcdA^37-72) (peptide, UniProt P62552 37-72, looked up)
chain: RRLRAERWKAENQEGMAEVARFIEMNGSFADENRDW
Regarding B4, in series [4], the binding result was “binds”.

B5: Random (dsDNA)
DNA 1: TGCCCAAGTGATGCTAAACAAGACTTAGCTGGTTCCTGTGTT
DNA 2: AACACAGGAACCAGCTAAGTCTTGTTTAGCATCACTTGGGCA
For the molecule B5, the binding result in series [5] is “no binding”.
